Target: Histone H4 N-terminal peptide, biotinylated (1–23) (UniProt P62805 2-24, biotin (position not given))
Assay: pull-down

B1: GST-tagged KAP1 PHD (residues 624–673) (domain or fragment, UniProt Q13263 624-673, looked up)
chain: SATICRVCQKPGDLVMCNQCEFCFHLDCHLPALQDVPGEEWSCSLCHVLP
binding result: binds
